Patent publication US20210275641A1 (SYNTHEKINE, published 2021)

T1: human high affinity trimeric IL-2 receptor (CD25/CD122/CD132) (human, UniProt P01589 22-272; P14784 27-551; P31785 23-369)
T1 sequence 1: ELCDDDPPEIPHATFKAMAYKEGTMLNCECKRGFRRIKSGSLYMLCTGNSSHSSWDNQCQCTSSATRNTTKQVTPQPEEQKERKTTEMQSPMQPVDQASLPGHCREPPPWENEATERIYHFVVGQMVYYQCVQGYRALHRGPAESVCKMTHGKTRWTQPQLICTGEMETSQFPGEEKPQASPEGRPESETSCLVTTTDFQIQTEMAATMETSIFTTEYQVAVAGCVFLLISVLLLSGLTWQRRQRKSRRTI
T1 sequence 2: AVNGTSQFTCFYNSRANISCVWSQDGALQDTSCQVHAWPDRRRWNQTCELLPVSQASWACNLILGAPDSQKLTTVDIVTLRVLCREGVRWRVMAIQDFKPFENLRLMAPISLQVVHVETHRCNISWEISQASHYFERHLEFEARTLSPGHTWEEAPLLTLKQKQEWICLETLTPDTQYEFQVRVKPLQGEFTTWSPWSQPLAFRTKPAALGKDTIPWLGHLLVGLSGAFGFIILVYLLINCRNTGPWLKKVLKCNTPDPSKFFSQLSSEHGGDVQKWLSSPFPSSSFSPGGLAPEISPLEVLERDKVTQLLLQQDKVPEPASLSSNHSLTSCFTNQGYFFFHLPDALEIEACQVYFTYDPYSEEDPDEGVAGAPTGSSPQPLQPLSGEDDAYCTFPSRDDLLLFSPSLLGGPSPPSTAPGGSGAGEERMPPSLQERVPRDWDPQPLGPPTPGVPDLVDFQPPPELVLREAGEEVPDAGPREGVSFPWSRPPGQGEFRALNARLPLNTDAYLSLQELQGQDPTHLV
T1 sequence 3: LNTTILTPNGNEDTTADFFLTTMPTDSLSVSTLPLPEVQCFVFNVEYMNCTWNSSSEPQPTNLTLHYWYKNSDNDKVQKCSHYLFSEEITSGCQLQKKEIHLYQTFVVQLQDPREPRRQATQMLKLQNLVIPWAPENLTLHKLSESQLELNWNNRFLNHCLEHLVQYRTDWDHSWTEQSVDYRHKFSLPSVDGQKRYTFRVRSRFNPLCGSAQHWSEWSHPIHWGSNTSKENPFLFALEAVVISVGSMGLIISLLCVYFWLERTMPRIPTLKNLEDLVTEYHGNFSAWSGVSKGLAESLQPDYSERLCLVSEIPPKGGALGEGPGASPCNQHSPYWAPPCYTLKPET


The binders below were run against T1, human high affinity trimeric IL-2 … (assay: cell-based or functional assay).

Binder	pSTAT5 ratio YT CD25/YT, dilution factor 2, lower table	pSTAT5 ratio YT CD25/YT, dilution factor 2, upper table	pSTAT5 ratio YT CD25/YT, dilution factor 4, lower table	pSTAT5 ratio YT CD25/YT, dilution factor 4, upper table	pSTAT5 ratio YT CD25/YT, dilution factor 8, lower table	pSTAT5 ratio YT CD25/YT, dilution factor 8, upper table	pSTAT5 ratio YT CD25/YT, dilution factor 16, lower table	pSTAT5 ratio YT CD25/YT, dilution factor 16, upper table	pSTAT5 ratio YT CD25/YT, dilution factor 32, lower table	pSTAT5 ratio YT CD25/YT, dilution factor 32, upper table
hIL2 mutein REH (L18R, Q22E, Q126H) (ligand) APTSSSTKKTQLQLEHLRLDLEMILNGINNYKNPKLTRMLTFKFYMPKKATELKHLQCLEEELKPLEEVLNLAQSKNFHLRPRDLISNINVIVLELKGSETTFMCEYADETATIVEFLNRWITFCHSIISTLT	0.8	0.9	0.9	1	1	1.1	1.3	1.3	1.6	1.8
FEH (ligand) cytokine: APTSSSTKKTQLQLEHLFLDLEMILNGINNYKNPKLTRMLTFKFYMPKKATELKHLQCLEEELKPLEEVLNLAQSKNFHLRPRDLISNINVIVLELKGSETTFMCEYADETATIVEFLNRWITFCHSIISTLT		0.9		1.2		1.3		1.4		1.7
WEH (ligand) cytokine: APTSSSTKKTQLQLEHLWLDLEMILNGINNYKNPKLTRMLTFKFYMPKKATELKHLQCLEEELKPLEEVLNLAQSKNFHLRPRDLISNINVIVLELKGSETTFMCEYADETATIVEFLNRWITFCHSIISTLT		1.1		1.4		1.5		2.2		3.9
KEH (ligand) cytokine: APTSSSTKKTQLQLEHLKLDLEMILNGINNYKNPKLTRMLTFKFYMPKKATELKHLQCLEEELKPLEEVLNLAQSKNFHLRPRDLISNINVIVLELKGSETTFMCEYADETATIVEFLNRWITFCHSIISTLT		1.1		1		1.1		1.4		1.6
QEH (ligand) cytokine: APTSSSTKKTQLQLEHLQLDLEMILNGINNYKNPKLTRMLTFKFYMPKKATELKHLQCLEEELKPLEEVLNLAQSKNFHLRPRDLISNINVIVLELKGSETTFMCEYADETATIVEFLNRWITFCHSIISTLT		1.1		1.3		1.8		3.1		5.8
EEH (ligand) cytokine: APTSSSTKKTQLQLEHLELDLEMILNGINNYKNPKLTRMLTFKFYMPKKATELKHLQCLEEELKPLEEVLNLAQSKNFHLRPRDLISNINVIVLELKGSETTFMCEYADETATIVEFLNRWITFCHSIISTLT		1.4		2.3		4.8		8.4		14.7
SEH (ligand) cytokine: APTSSSTKKTQLQLEHLSLDLEMILNGINNYKNPKLTRMLTFKFYMPKKATELKHLQCLEEELKPLEEVLNLAQSKNFHLRPRDLISNINVIVLELKGSETTFMCEYADETATIVEFLNRWITFCHSIISTLT		1.2		1.5		2.5		4		7.8
VEH (ligand) cytokine: APTSSSTKKTQLQLEHLVLDLEMILNGINNYKNPKLTRMLTFKFYMPKKATELKHLQCLEEELKPLEEVLNLAQSKNFHLRPRDLISNINVIVLELKGSETTFMCEYADETATIVEFLNRWITFCHSIISTLT		1.2		1.6		2.4		3.6		6.3
IEH (ligand) cytokine: APTSSSTKKTQLQLEHLILDLEMILNGINNYKNPKLTRMLTFKFYMPKKATELKHLQCLEEELKPLEEVLNLAQSKNFHLRPRDLISNINVIVLELKGSETTFMCEYADETATIVEFLNRWITFCHSIISTLT		1.2		1.4		1.6		2.6		4.6
YEH (ligand) cytokine: APTSSSTKKTQLQLEHLYLDLEMILNGINNYKNPKLTRMLTFKFYMPKKATELKHLQCLEEELKPLEEVLNLAQSKNFHLRPRDLISNINVIVLELKGSETTFMCEYADETATIVEFLNRWITFCHSIISTLT	0.8		0.9		1		1.2		1.5	
HEH (ligand) cytokine: APTSSSTKKTQLQLEHLHLDLEMILNGINNYKNPKLTRMLTFKFYMPKKATELKHLQCLEEELKPLEEVLNLAQSKNFHLRPRDLISNINVIVLELKGSETTFMCEYADETATIVEFLNRWITFCHSIISTLT	1		1.2		1.8		3.1		5.6	

Same assay, conditions: not given

Binder	pSTAT5 ratio YT CD25/YT, dilution factor 64, lower table	pSTAT5 ratio YT CD25/YT, dilution factor 64, upper table	pSTAT5 ratio YT CD25/YT, dilution factor 128, lower table	pSTAT5 ratio YT CD25/YT, dilution factor 128, upper table
hIL2 mutein REH (L18R, Q22E, Q126H) (ligand) APTSSSTKKTQLQLEHLRLDLEMILNGINNYKNPKLTRMLTFKFYMPKKATELKHLQCLEEELKPLEEVLNLAQSKNFHLRPRDLISNINVIVLELKGSETTFMCEYADETATIVEFLNRWITFCHSIISTLT	2.4	2.9	3.9	4.7
FEH (ligand) cytokine: APTSSSTKKTQLQLEHLFLDLEMILNGINNYKNPKLTRMLTFKFYMPKKATELKHLQCLEEELKPLEEVLNLAQSKNFHLRPRDLISNINVIVLELKGSETTFMCEYADETATIVEFLNRWITFCHSIISTLT		2.9		4.7
WEH (ligand) cytokine: APTSSSTKKTQLQLEHLWLDLEMILNGINNYKNPKLTRMLTFKFYMPKKATELKHLQCLEEELKPLEEVLNLAQSKNFHLRPRDLISNINVIVLELKGSETTFMCEYADETATIVEFLNRWITFCHSIISTLT		6.4		10
KEH (ligand) cytokine: APTSSSTKKTQLQLEHLKLDLEMILNGINNYKNPKLTRMLTFKFYMPKKATELKHLQCLEEELKPLEEVLNLAQSKNFHLRPRDLISNINVIVLELKGSETTFMCEYADETATIVEFLNRWITFCHSIISTLT		2.3		4
QEH (ligand) cytokine: APTSSSTKKTQLQLEHLQLDLEMILNGINNYKNPKLTRMLTFKFYMPKKATELKHLQCLEEELKPLEEVLNLAQSKNFHLRPRDLISNINVIVLELKGSETTFMCEYADETATIVEFLNRWITFCHSIISTLT		8.3		11.7
EEH (ligand) cytokine: APTSSSTKKTQLQLEHLELDLEMILNGINNYKNPKLTRMLTFKFYMPKKATELKHLQCLEEELKPLEEVLNLAQSKNFHLRPRDLISNINVIVLELKGSETTFMCEYADETATIVEFLNRWITFCHSIISTLT		16.9		17
SEH (ligand) cytokine: APTSSSTKKTQLQLEHLSLDLEMILNGINNYKNPKLTRMLTFKFYMPKKATELKHLQCLEEELKPLEEVLNLAQSKNFHLRPRDLISNINVIVLELKGSETTFMCEYADETATIVEFLNRWITFCHSIISTLT		11.4		15.1
VEH (ligand) cytokine: APTSSSTKKTQLQLEHLVLDLEMILNGINNYKNPKLTRMLTFKFYMPKKATELKHLQCLEEELKPLEEVLNLAQSKNFHLRPRDLISNINVIVLELKGSETTFMCEYADETATIVEFLNRWITFCHSIISTLT		10.9		14.8
IEH (ligand) cytokine: APTSSSTKKTQLQLEHLILDLEMILNGINNYKNPKLTRMLTFKFYMPKKATELKHLQCLEEELKPLEEVLNLAQSKNFHLRPRDLISNINVIVLELKGSETTFMCEYADETATIVEFLNRWITFCHSIISTLT		7.2		10.9
YEH (ligand) cytokine: APTSSSTKKTQLQLEHLYLDLEMILNGINNYKNPKLTRMLTFKFYMPKKATELKHLQCLEEELKPLEEVLNLAQSKNFHLRPRDLISNINVIVLELKGSETTFMCEYADETATIVEFLNRWITFCHSIISTLT	2		3.4	
HEH (ligand) cytokine: APTSSSTKKTQLQLEHLHLDLEMILNGINNYKNPKLTRMLTFKFYMPKKATELKHLQCLEEELKPLEEVLNLAQSKNFHLRPRDLISNINVIVLELKGSETTFMCEYADETATIVEFLNRWITFCHSIISTLT	8.3		11.8	
